According to patent US6582902B1, “Method for deriving epitopes” (priority 1992, dated 2003):

What was measured:
[1] = system: g10-reactive antibodies (anti-g10 serum); test: Competition for immunoprecipitation of [35S] g10-U1-A fusion protein by anti-g10 serum; assay type: binding, rabbit
Description: Panel A: Western blot of E. coli extracts containing various U1-A protein constructs. All extracts were produced from induced E. coli cells containing recombinant pET-8c T7 expression vectors in accordance with known techniques. See F. Studier et al., Meth. Enzym. 185, 60-89 (1991). U1-A cDNA was cloned into pET-8c either attached or not attached to the g10 peptide. Lanes: 1, 5 and 9: the pET-8c vector alone; 2, 6 and 10: g10-U1-A protein; 3, 7 and 11: U1-A protein; 4, 8 and 12: total HeLa cell extracts. Lanes 1-4 were probed with pre-immune rabbit serum; lanes 5-8 were probed with anti-g10 serum; and lanes 9-12 were probed with a U1/U2-specific autoimmune serum (patient). EW reacts with U1 RNA, U1-70K (70 kDa), U1-A (31 kDa) and U2-A′ (28.4 kDa) (lane 12). Panel B: Immunoprecipitation and competition analysis of [^35S]-methionine-labeled U1-A and g10-U1-A proteins expressed by in vitro transcription, and subsequent translation in rabbit reticulocyte lysates. Lanes: 1 and 2 show the amount of U1-A and g10-U1-A translation product, respectively, added to each immunoprecipitation reaction; 3: blank; 4 and 5: U1-A and g10-U1-A precipitated with serum EW (reactive with U1-A); 6 and 7: U1-A and g10-U1-A, respectively, precipitated with anti-g10 serum. In lanes 8-12, g10-U1-A was precipitated with anti-g10 serum in the presence of varying amounts of competitors as follows: lanes 8-11 contained the g10 peptide at concentrations of 27.8, 83.3, 250 and 750 nM, respectively; lane 12 contained a control peptide (sequence GKSRGFAFVEFK-amide) (SEQ ID NO:4) at a concentration of 25 mM. The faint lower band in all lanes represents either a degradation product or a premature translation termination product and is seen consistently in U1-A translations.
[^32P] labeled in vitro transcribed D10 RNA or [^35S] labeled in vitro translated g10 fusion protein (g10-U1A) was immunoprecipitated by the anti-g10 serum in the presence of various competitors. D10 RNA and g10 fusion protein bound in the immunoprecipitations were analyzed using denaturing polyacrylamide gels and autoradiography. […]

[2] = system: anti-g10 serum; test: Selection of RNA from degenerate pool by immunoprecipitation with anti-g10 serum; assay type: binding, rabbit; settings: three cycles, high stringency washing (0.5 M urea)
Description: Whereas the g10 peptide is a useful epitope tag for analyzing complexes containing protein, an RNA epitope tag would be equally useful for studying complexes containing RNA. The anti-g10 serum was presented with a degenerate pool of RNA containing 1,048,576 unique species, assuming incorporation of four different nucleotides at 10 randomized loop positions (FIG. 2). These RNAs were transcribed from approximately 1×10^11 molecules of degenerate oligodeoxynucleotide template (D. Tsai et al., Nucl. Acids Res. 19, 4931-4936 (1991)). Assuming that most templates are transcribed at least once, all possible RNA species should be redundantly represented. RNA was prepared by in vitro transcription of PCR-generated templates in accordance with known techniques (D. Tsai et al., Nucl. Acids Res. 19, 4931-4936 (1991)). The transcripts were immunoprecipitated with the anti-g10 serum as follows: Protein A Sepharose beads (Sigma, 4 mg per […]) were washed in NT2 buffer (50 mM Tris [pH 7.4], 150 mM NaCl, 0.05% Nonidet P-40) (C. Query et al., Cell 57, 89-101 (1989)), mixed with […] of anti-g10 serum, incubated on ice for 10 min, and washed in NT2. […]

B1: D10 RNA: single RNA species selected from the degenerate pool by anti-g10 serum (SEQ ID NO:3); U1 stem II with loop UGGUGGAGCA (nucleic acid)
chain: GGGCCACCAACGACAUUGGGCGAGGCUUAUCCUGGUGGAGCAGGAUGUGCUGACCCCGUUGAUAUAAAUAGUGCCCAUGGAUC
modifications: chemistry not given here
notes: U1 stem II with loop UGGUGGAGCA
Question: Which results are given for B1?
Answer: competition with g10 fusion protein for binding to the antibody ([1]; FIG. 5C, 0.7 nM competitor RNA): able to compete; competition with [35S] labeled g10 fusion protein, increasing amounts of competitor ([1]; FIG. 5D, 0.0175-1.05 nM D10 RNA): able to progressively compete; isolates obtained after antibody selection [2]: 45 out of 45
